Where a chain is given by its changes, count along the chain named.
T1: human CEACAM5 on 293T cells (293T-huCEACAM5 cells) (human, UniProt P06731 35-685)
T1 construct: whole, on cells
T1 sequence (looked up): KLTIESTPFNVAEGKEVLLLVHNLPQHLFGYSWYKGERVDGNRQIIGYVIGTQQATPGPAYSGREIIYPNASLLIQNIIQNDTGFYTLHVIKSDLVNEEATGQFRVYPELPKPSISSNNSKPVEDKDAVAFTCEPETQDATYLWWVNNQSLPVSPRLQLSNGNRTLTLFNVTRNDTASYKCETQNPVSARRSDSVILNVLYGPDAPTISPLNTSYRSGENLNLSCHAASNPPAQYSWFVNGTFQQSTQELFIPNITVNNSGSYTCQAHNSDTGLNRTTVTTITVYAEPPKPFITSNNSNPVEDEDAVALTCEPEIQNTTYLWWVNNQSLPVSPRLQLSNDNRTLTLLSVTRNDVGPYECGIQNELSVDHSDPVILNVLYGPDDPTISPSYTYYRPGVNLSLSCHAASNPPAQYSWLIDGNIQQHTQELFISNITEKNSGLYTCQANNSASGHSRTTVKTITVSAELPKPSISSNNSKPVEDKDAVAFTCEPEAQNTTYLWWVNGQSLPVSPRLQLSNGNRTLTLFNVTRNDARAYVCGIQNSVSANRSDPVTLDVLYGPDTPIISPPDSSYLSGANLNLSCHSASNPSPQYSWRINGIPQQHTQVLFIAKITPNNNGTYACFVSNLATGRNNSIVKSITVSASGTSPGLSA

T2: human CEACAM6 on 293T cells (293T-huCEACAM6 cells) (human, UniProt P40199 35-320)
T2 construct: whole, on cells
T2 sequence (looked up): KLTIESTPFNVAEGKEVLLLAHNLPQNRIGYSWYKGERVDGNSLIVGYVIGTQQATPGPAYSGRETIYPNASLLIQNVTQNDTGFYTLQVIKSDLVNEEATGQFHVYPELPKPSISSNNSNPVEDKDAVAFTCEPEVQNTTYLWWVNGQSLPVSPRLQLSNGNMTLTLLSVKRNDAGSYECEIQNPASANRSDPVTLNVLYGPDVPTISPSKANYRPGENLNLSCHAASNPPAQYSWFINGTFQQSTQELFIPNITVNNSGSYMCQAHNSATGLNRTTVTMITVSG

T3: recombinant CEACAM5-his protein, biotinylated (UniProt P06731 35-685, limits assumed, biotinylated (sites not given))
T3 construct: not shown: His tag
T3 sequence (looked up): T1 sequence (looked up)

T4: human CEACAM1 protein (human, UniProt P13688 35-428)
T4 construct: also called huCEACAM1
T4 sequence (looked up): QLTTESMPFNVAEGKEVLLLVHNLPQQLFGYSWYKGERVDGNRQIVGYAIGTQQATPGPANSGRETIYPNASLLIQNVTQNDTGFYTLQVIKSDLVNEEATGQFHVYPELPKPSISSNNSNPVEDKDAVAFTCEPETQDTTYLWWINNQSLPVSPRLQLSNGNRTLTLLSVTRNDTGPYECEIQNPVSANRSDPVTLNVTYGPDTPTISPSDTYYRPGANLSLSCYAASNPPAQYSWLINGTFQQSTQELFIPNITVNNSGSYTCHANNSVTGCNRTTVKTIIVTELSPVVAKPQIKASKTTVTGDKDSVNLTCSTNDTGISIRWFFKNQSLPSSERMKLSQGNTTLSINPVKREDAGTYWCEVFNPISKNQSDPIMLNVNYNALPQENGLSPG

T5: human CEACAM6 protein (human, UniProt P40199 35-320)
T5 construct: also called huCEACAM6
T5 sequence (looked up): T2 sequence (looked up)

T6: human CEACAM5 protein (human, UniProt P06731 35-685)
T6 construct: also called huCEACAM5
T6 sequence (looked up): T1 sequence (looked up)

B1: PR304294 (antibody, human IgG1, kappa, V domains shown)
VH: EVQLLESGGGLVQPGGSLRLSCAASGFTFSSYAMSWVRQAPGKGLEWVSAISGTTYNTYYAGSVKGRFTISRDNSKNTLYLQMNSLRAEDTAVYYCAKGISVAGYYYYGMDVWGQGTTVTVSS
VL: EIVMTQSPATLSVSPGERATLSCRASQSVISNLAWYQQKPGQAPRLLIYGASTRATGIPARFSGSGSGTEFTLTISSLQSEDFAVYYCHQYNNWPLTFGGGTKVEIKR
notes: Recombinant full antibody
B2: PR304171 (antibody, human IgG1, kappa, V domains shown)
VH: not shown
VL: B1 VL with S28N, Y36H, G50T, A51T, H89Q
notes: Recombinant full antibody

Experiments:
[1] = target: T1, human CEACAM5 on 293T cells …; assay: flow cytometry on 293T-huCEACAM5 cells
Protocol: (§1) Binding of recombinant anti-CEACAM5/6 dual-binding antibodies against human or cynomolgus CEACAM5 or CEACAM6 stable cells were detected by flow cytometry. […] Anti-CEACAM5/6 dual-binding antibodies were incubated with the stable cell lines. Anti-CEACAM5/6 dual-binding antibodies were serially diluted in staining buffer (PBS containing 2% FBS). 50 μL of diluted antibody solution was added to 50 μL of cell suspension containing 1-2×10⁵ cells and incubated at 4° C. for 1 hour. […] After 1-hour incubation at 4° C., cells were washed twice and run on a flow cytometer. […] The results were shown in FIGS. 8-10 and Tables 6 below.

[2] = target: T2, human CEACAM6 on 293T cells …; assay: flow cytometry on 293T-huCEACAM6 cells
Protocol: as §1

[3] = target: T7, cynomolgus CEACAM5 on CHO-K1 cells (CHOK1-cyno CEACAM5 cells) (cynomolgus monkey); assay: flow cytometry on CHOK1-cyno CEACAM5 cells
T7 construct: whole, on cells; also called CHOK1-cynoCECAM5
Protocol: as §1

[4] = target: T3, recombinant CEACAM5-his protein, …; assay: Octet epitope binning on biotinylated CEACAM5-his; competitor PR304294
Protocol: (§2) In epitope binning analysis using Octet, antibodies were tested against other antibodies in a pairwise fashion to see if antibodies block one another's binding to the epitope of the antigen. The first and second antibodies was diluted into same concentration which could saturate the binding of immobilized antigens. Recombinant CEACAM5-his protein was biotinylationed and was then used as antigen and immobilized to SA sensor. The first antibody was associated with antigen and then followed by the second antibody. Data were analyzed by ForteBio Data Analysis Software (version 8.0, Pall ForteBio). The rate of RU values of the same antibody as 2nd antibody to as 1st antibody was calculated as the co-binding rate of this antibody to other antibodies.

human CEACAM1 protein = target: T4, human CEACAM1 protein; assay: ELISA, antigen coated on plate
Description: (§3) Binding of recombinant anti-CEACAM5/6 dual-binding monoclonal antibodies against human and cynomolgus CEACAM5, and human CEACAM6 (Uniprot P40199), human CEACAM 1, 3 (NP_001806.2, Sino Biological 11933-H08H) and 8 (NP_001807.2, Acro Bio CE8-H5224) were detected by ELISA. Anti-CEACAM5/6 dual-antibodies were serially diluted in staining buffer (PBS containing 2% FBS). […] ELISA was used to test the binding between antibody containing supernatant or purified antibodies and the antigen. Briefly, the antigens were coated on a 96-well high binding plate overnight at 4° C. The plate was washed with PBST three times, incubated with blocking buffer (2% Bovine Serum Albumin) for one hour at 37° C., washed with PBST three times and incubated with antibody containing supernatant or purified antibodies at desired dilutions or concentrations for one hour at 37° C. A secondary antibody, anti-human Fc-HRP (Jackson Laboratory, 109-035-097) was used for detection of the targeted antibody. TMB and stopping solution were used for detection of HRP signal. The HRP signal was read on a SPECTRAMAX plate reader.

human CEACAM6 protein = target: T5, human CEACAM6 protein; assay: ELISA, antigen coated on plate
Description: as §3

human CEACAM5 protein = target: T6, human CEACAM5 protein; assay: ELISA, antigen coated on plate
Description: as §3

[5] = target: T3, recombinant CEACAM5-his protein, …; assay: Octet epitope binning on biotinylated CEACAM5-his; competitor PR304171
Protocol: as §2

Binder | EC50 [1] | EC50 [2] | EC50 [3] | co-binding rate [4] | binding result (human CEACAM1 protein) | EC50 (human CEACAM6 protein) | EC50 (human CEACAM5 protein) | co-binding rate [5]
B1 | 1.26 nM | 1.32 nM | 2.51 nM | 1.8% | no binding | 0.22 nM | 0.04 nM | -4.88%
B2 | 3.64 nM | 10.6 nM | 14.9 nM | 24.4% | no binding | 24.1 nM | 0.15 nM | 13.7%

From patent US20260258125A1 (NONA BIOSCIENCES SUZHOU, published 2026)
